For data set [1], the target named is T1, SRF (rSRF);PTEN (rPTEN) (;, UniProt P11831;P60484 1-508;1-403, |). The data set is described as follows: EMSA; lower mobility complex on adding rPTEN; 10 mM Tris pH 8.0, 1 mM EDTA, 8% glycerol, 10 ul, ~150 ng fluorescein-labelled DNA, 1 h at room temperature; 4-20% Tris-glycine native gel, pH 8.3. In general terms: Mobility shift assays separate free from complexed probe on a gel.

In data set [2] the target is T2, SRF (rSRF) (UniProt P11831 1-508).
T2 sequence: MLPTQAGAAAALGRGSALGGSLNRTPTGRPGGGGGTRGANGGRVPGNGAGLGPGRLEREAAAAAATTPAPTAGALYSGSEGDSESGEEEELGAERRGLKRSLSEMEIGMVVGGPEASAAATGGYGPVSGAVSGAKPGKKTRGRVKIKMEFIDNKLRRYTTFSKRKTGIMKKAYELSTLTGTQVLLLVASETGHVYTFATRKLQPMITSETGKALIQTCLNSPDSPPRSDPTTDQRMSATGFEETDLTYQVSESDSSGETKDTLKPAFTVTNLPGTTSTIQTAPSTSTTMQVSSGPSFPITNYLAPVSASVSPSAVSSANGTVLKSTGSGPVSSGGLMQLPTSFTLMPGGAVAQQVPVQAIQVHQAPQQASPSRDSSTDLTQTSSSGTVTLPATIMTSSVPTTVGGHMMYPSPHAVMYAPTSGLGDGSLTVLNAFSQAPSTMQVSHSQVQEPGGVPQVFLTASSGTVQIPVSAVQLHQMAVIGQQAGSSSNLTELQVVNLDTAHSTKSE
The data set is described as follows: EMSA; 10 mM Tris pH 8.0, 1 mM EDTA, 8% glycerol, 10 ul, ~150 ng fluorescein-labelled DNA, 1 h at room temperature; 4-20% Tris-glycine native gel, pH 8.3.

Data set [3] concerns the target T2, SRF (rSRF). Briefly: EMSA; two bands at 1 ul rSRF; single lower mobility band at saturating 3 ul; 10 mM Tris pH 8.0, 1 mM EDTA, 8% glycerol, 10 ul, ~150 ng fluorescein-labelled DNA, 1 h at room temperature; 4-20% Tris-glycine native gel, pH 8.3.
The target of data set [4] is T1, SRF (rSRF);PTEN (rPTEN). Briefly: EMSA, supershift and western blot of EMSA; higher mobility complex than rSRF alone; supershifted by PTEN or SRF antibody; 10 mM Tris pH 8.0, 1 mM EDTA, 8% glycerol, 10 ul, ~150 ng fluorescein-labelled DNA, 1 h at room temperature; 4-20% Tris-glycine native gel, pH 8.3.
The target of a further data set is PTEN (rPTEN) (UniProt P60484 1-403). The data set is described as follows: EMSA; rPTEN alone; 10 mM Tris pH 8.0, 1 mM EDTA, 8% glycerol, 10 ul, ~150 ng fluorescein-labelled DNA, 1 h at room temperature; 4-20% Tris-glycine native gel, pH 8.3.

B1: CArG B 20-bp probe (Acta2) (dsDNA)
DNA 1: GAGGTCCCTATATGGTTGTG
DNA 2: CACAACCATATAGGGACCTC
For B1, the binding result in the data set with SRF (rSRF);PTEN (rPTEN) [1] and in the data set with SRF (rSRF) [2] was “binds” each time.

B2: CArG A+B 95-bp probe (Acta2) (dsDNA)
DNA 1: AATTCTGGGGTGTATCTTGCCCTATATGGGATATCGCTCTGACCGTTAACTAGGACTAGCTGAGGGTAGCCTTGTTTGGCTGCATCTGTTTCTTTTCGGCTAGC
DNA 2: GCTAGCCGAAAAGAAACAGATGCAGCCAAACAAGGCTACCCTCAGCTAGTCCTAGTTAACGGTCAGAGCGATATCCCATATAGGGCAAGATACACCCCAGAATT
For the molecule B2, the binding result was “binds” with SRF (rSRF) [3], “binds” with SRF (rSRF);PTEN (rPTEN) [4] and “no binding” with PTEN (rPTEN).
